Results published in publication doi:10.1101/2021.09.17.460839.

Target: T1, Rv0792c (Mycobacterium tuberculosis) (UniProt O86331)
T1 sequence: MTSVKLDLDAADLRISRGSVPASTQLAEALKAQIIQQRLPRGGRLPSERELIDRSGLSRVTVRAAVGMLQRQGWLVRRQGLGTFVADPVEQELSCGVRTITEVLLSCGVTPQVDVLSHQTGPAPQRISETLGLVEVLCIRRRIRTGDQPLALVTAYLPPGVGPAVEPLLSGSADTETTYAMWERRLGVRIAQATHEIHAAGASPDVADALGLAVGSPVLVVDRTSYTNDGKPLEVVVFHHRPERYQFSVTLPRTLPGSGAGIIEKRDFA
Experiment: ALISA

Sequence | binding signal | Kd
TAGGGTCTCGGATCGGAGGGATGGGCAGTGTGTGCGGTATGTTG [Rv0792c_5 aptamer (printed Rv0729c_5)] | 90 % reduction | –
TCGTATTCATCTCTACATCCGGTAATCCGCACATGAGTAATCC [Rv0792c_1 aptamer (printed Rv0729c_1)] | 90 % reduction | –
TCTAGTCATTCGTCATAATCCCATCTGTTTCTTCCTCCTTCCGT [Rv0792c_2 aptamer (printed Rv0729c_2)] | – | 51 nM
